Test results reported in PMC7274780.

Molecular target: Salmonella typhimurium oxaloacetate decarboxylase sodium pump (StOAD) β subunit (Salmonella typhimurium) (UniProt Q03031)
Assay: cryo-EM structure; purified StOAD βγ sub-complex in 20 mM Tris pH 7.5, 100 mM sodium chloride, 2 mM DTT, 0.02% DDM; C3 symmetry imposed; 3.88 Å

stoichiometry N: 3
Substance: Salmonella typhimurium oxaloacetate decarboxylase sodium pump (StOAD) β subunit (from UniProt Q03031 1-433) (natural protein)
